Measurements taken from paper PMC4873976, “Structural basis for haem piracy from host haemopexin by Haemophilus influenzae” (Nature Communications, 2016).

Legend:
Details in all cases: both partners purified
[1] = target: T1, HxuA (cysteine-less variant, Cys855 and Cys861 replaced by serines; referred to as HxuA throughout) (Haemophilus influenzae, UniProt P44602 22-905, Cys855 replaced by serine | Cys861 replaced by serine); experiment: ITC; haemopexin or its fragment (~100 uM) in the syringe, HxuA or mutant (~10 uM) in the cell; 25 °C; 20 mM Na-phosphate pH 7.0; single-site model; apparent Ka; mean of one to three experiments
T1 construct: also called WT; HxuAWT; source: E. coli BL21 with a pBAD24 derivative harbouring the hxuCBA operon; purified from the culture supernatant (ammonium sulfate, SEC, monoQ)
T1 sequence: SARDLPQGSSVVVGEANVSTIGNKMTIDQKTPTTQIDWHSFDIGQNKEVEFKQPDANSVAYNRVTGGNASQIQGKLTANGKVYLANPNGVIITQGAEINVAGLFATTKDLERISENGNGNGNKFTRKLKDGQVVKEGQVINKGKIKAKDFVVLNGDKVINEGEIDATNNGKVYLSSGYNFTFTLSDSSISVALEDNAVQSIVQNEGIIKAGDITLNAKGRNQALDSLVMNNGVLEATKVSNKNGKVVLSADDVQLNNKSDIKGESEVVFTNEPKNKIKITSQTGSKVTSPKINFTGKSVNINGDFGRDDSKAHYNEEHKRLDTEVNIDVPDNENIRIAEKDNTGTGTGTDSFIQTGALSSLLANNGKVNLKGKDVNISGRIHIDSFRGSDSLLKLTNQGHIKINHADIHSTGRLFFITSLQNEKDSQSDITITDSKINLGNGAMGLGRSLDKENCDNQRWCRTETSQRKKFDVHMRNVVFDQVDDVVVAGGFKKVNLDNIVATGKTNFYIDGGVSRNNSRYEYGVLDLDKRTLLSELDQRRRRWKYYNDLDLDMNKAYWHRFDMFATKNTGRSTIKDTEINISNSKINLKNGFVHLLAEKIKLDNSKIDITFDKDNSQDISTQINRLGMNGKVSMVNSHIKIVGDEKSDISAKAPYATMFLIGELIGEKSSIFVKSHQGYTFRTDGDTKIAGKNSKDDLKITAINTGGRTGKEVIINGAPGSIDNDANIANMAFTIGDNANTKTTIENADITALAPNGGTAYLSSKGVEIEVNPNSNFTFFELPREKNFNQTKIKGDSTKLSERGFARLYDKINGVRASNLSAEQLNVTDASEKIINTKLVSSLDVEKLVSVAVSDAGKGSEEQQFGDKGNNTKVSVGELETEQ

[2] = target: T2, HxuA^DEL (M loop deletion), cysteine-less (dm) variant (Haemophilus influenzae, UniProt P44602 22-905, additional Pro codon replacing the initial 712-728 sequence | Cys855 replaced …); experiment: as above
T2 construct: source: E. coli BL21 with a pBAD24 derivative harbouring the hxuCBA operon; purified from the culture supernatant (same protocol as HxuA)
T2 sequence: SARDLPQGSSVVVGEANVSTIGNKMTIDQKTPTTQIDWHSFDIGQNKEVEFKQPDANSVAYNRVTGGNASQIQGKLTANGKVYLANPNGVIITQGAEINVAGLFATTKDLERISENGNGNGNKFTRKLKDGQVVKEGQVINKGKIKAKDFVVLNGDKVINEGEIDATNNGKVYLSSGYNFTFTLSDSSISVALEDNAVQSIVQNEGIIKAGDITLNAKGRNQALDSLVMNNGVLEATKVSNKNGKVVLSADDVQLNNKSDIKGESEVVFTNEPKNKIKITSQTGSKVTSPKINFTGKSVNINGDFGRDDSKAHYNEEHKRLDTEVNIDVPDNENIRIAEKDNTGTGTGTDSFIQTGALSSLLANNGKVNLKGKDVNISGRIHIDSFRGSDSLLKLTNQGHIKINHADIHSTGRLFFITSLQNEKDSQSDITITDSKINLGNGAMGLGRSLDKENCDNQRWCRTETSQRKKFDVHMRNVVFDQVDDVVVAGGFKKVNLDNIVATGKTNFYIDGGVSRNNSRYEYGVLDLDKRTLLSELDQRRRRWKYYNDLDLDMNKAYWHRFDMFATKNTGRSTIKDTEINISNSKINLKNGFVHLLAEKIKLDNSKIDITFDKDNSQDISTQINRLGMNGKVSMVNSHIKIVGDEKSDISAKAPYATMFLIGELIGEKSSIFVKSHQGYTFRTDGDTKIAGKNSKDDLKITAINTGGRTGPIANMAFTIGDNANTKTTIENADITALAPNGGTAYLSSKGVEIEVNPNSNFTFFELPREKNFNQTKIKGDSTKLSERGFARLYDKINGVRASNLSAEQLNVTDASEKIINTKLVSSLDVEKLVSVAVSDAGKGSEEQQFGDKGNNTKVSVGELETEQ

[3] = target: T3, HxuA^Asp726Ala, cysteine-less (dm) variant (Haemophilus influenzae, UniProt P44602 22-905, Asp726Ala | Cys855 replaced by serine | Cys861 replaced by serine); experiment: as above
T3 construct: source: E. coli BL21 with a pBAD24 derivative harbouring the hxuCBA operon; purified from the culture supernatant (same protocol as HxuA)
T3 sequence: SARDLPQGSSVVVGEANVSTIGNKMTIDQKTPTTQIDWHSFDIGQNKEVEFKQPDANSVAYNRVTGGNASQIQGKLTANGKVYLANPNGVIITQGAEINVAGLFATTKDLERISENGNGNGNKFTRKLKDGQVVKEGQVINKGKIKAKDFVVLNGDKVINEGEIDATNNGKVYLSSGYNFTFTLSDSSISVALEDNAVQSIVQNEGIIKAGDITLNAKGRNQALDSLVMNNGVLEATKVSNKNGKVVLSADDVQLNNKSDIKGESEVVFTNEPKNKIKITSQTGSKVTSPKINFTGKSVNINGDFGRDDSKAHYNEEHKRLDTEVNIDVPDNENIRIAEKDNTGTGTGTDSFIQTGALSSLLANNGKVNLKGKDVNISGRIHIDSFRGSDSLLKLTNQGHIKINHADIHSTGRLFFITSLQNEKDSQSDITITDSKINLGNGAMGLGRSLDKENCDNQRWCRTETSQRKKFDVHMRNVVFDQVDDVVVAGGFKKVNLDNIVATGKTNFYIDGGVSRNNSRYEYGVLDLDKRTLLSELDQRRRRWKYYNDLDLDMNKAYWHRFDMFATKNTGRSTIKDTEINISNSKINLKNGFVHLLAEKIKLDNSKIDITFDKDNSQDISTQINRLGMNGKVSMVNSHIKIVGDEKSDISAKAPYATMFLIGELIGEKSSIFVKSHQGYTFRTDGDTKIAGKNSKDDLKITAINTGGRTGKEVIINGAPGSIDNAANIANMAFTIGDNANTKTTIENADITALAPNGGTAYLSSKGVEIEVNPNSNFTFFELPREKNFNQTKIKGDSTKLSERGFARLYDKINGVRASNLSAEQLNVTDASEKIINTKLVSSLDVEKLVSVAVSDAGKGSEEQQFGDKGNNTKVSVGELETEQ

[4] = target: T4, HxuA, cysteine-less variant (cysteines 855 and 861 replaced by serines; referred to as HxuA throughout) (Haemophilus influenzae, UniProt P44602 22-905, cysteine at position 855 replaced by serine | cysteine at position 861 replaced …); experiment: ITC; haemopexin or its fragments (~100 μM) in the syringe, HxuA (~10 μM) in the cell; 20 mM Na-phosphate pH 7.0, 25 °C; single-site model; apparent Ka
T4 construct: HxuA, haem-haemopexin utilisation protein A (TpsA cargo protein) of Haemophilus influenzae, called full-length, 884 residues, Ser1 to Gln884; Measured mass 96,467.6094 (theoretical 96,469.6926); also called HxuAdm; dm variant; source: E. coli BL21, pBAD24 derivative with the hxuCBA operon; purified from the culture supernatant (ammonium sulfate, SEC, monoQ)
T4 sequence: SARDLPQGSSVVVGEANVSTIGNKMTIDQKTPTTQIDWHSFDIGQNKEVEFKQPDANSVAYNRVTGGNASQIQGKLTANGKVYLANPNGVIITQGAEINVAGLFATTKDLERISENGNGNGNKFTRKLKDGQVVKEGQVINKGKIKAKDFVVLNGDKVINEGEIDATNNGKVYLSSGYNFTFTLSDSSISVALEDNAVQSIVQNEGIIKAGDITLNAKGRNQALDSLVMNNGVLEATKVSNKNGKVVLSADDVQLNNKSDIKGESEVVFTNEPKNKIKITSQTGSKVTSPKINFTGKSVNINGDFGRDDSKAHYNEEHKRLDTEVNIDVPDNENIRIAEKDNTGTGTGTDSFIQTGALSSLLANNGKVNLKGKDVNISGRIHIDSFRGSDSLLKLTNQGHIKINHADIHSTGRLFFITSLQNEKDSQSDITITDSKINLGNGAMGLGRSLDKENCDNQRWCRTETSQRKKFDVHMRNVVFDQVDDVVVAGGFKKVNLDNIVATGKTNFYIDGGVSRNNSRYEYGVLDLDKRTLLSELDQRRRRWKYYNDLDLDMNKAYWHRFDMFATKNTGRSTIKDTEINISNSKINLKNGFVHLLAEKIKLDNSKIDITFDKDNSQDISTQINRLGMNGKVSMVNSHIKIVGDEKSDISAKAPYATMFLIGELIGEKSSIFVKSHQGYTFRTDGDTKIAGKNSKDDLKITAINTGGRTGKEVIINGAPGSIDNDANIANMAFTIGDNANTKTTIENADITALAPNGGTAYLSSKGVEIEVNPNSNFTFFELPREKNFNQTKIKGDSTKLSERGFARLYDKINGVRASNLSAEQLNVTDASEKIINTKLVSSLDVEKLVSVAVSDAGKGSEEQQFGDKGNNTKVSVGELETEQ

| Binder | stoichiometry N [1] | stoichiometry N [2] | stoichiometry N [3] | Ka [1] [M⁻¹] | dH [4] [kcal/mol] | stoichiometry N [4] |
| --- | --- | --- | --- | --- | --- | --- |
| rabbit haem-haemopexin (natural protein, haem bound, Same chain as Dm4, with haem; also called He-Hpx; HeHpx; source: purified from rabbit serum (Biosera), haem-loaded) VPLTSAHGNVTEGESGTKPEADVIEQCSDGWSFDATTLDDNGTMLFFKDEFVWKSHRGIRELISERWKNFIGPVDAAFRHGHTSVYLIKGDKVWVYTSEKNEKVYPKSLQDEFPGIPFPLDAAVECHRGECQDEGILFFQGNRKWFWDLTTGTKKERSWPAVGNCTSALRWLGRYYCFQGNQFLRFNPVSGEVPPGYPLDVRDYFLSCPGRGHRSSHRNSTQHGHESTRCDPDLVLSAMVSDNHGATYVFSGSHYWRLDTNRDGWHSWPIAHQWPQGPSTVDAAFSWEDKLYLIQDTKVYVFLTKGGYTLVNGYPKRLEKELGSPPVISLEAVDAAFVCPGSSRLHIMAGRRLWWLDLKSGAQATWTELPWPHEKVDGALCMEKPLGPNSCSTSGPNLYLIHGPNLYCYRHVDKLNAAKNLPQPQRVSRLLGCTH | 0.96 | 0.89 | 1.06 |  |  |  |
| N-terminal domain of rabbit haemopexin (domain or fragment, haemopexin, rabbit, N-terminal fragment; The results call the domain residues 1-208; the fragment itself ends at Arg214; also called NtHpx; NterHpx; source: trypsin digestion of haemopexin purified from rabbit serum; purified (mono S, SEC)) VPLTSAHGNVTEGESGTKPEADVIEQCSDGWSFDATTLDDNGTMLFFKDEFVWKSHRGIRELISERWKNFIGPVDAAFRHGHTSVYLIKGDKVWVYTSEKNEKVYPKSLQDEFPGIPFPLDAAVECHRGECQDEGILFFQGNRKWFWDLTTGTKKERSWPAVGNCTSALRWLGRYYCFQGNQFLRFNPVSGEVPPGYPLDVRDYFLSCPGRGHR | 0.88 |  |  | 7.6e+07 |  |  |
| N-terminal domain of rabbit haemopexin (domain or fragment, haemopexin, rabbit, N-terminal tryptic fragment: cleaved in the linker after Arg 214; also called NtHpx; NterHpx; source: trypsin digestion of haemopexin purified from rabbit serum; purified (mono S, SEC)) VPLTSAHGNVTEGESGTKPEADVIEQCSDGWSFDATTLDDNGTMLFFKDEFVWKSHRGIRELISERWKNFIGPVDAAFRHGHTSVYLIKGDKVWVYTSEKNEKVYPKSLQDEFPGIPFPLDAAVECHRGECQDEGILFFQGNRKWFWDLTTGTKKERSWPAVGNCTSALRWLGRYYCFQGNQFLRFNPVSGEVPPGYPLDVRDYFLSCPGRGHR |  |  |  |  | -48.5 | ~1 |
